Measured values as given in the supplement of paper PMC10567573.
± gives the standard deviation.

Assay: protein stability index of a GFP-peptide fusion (GPS, HEK-293T) (PSI 1-6); higher = more stable
[1] = treatment: DMSO, c terminus: a fixed tail appended
[2] = treatment: MLN4924 1 uM, 8 h, c terminus: a fixed tail appended
[3] = treatment: DMSO, c terminus: native
[4] = treatment: MLN4924 1 uM, 8 h, c terminus: native
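Also: 24-mer peptide tiles fused after GFP, lentivirally expressed, FACS-sorted into six equal bins by GFP/DsRed ratio, decoded by Illumina sequencing, PSI is the read-weighted mean bin number.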

| Sequence | protein stability index [1] | protein stability index [2] | protein stability index [3] | protein stability index [4] |
| --- | --- | --- | --- | --- |
| GDIIRLEHKETSRNLHSHYHEAPM [POMT2] | 3.35 ± 0.13 | 3.57 ± 0.12 |  |  |
| GDSASEEKSGSAEPFVLPASSVES [FBXO34] | 5.39 ± 0.33 | 5.42 ± 0.42 |  |  |
| GEALGRDHSEHLSGSSYRDALQRY [RBMY1A1] | 4.33 ± 0.22 | 4.26 ± 0.29 |  |  |
| GEDCKLPPQPCATACKPVIRVPSV [KRT36] | 3.3 ± 0.22 | 3.23 ± 0.22 |  |  |
| GENSDCHRDSSQAIPITELTKSQV [ZNF8] | 4.94 ± 0.12 | 5.29 ± 0.23 |  |  |
| GERPEEGVAGGLNRNQGLNRLMLA [TCF25] | 3.88 ± 0.44 | 4.02 ± 0.47 |  |  |
| GFGILGHSQNLAKQQRNEVSFVIH [SEPHS2] | 2.25 ± 0.47 | 2.32 ± 0.32 |  |  |
| GFSSGRHRWQVDLQLGDGGGCTVG [TRIM15] | 2.93 ± 0.29 | 3.07 ± 0.27 |  |  |
| GFTSYLGFGDEDTGLELIAEESNP [MIA2] | 4.61 ± 0.22 |  |  |  |
| GGGREPQGLAEKSPLQTIGEEQTQ [WDR41] | 5.31 ± 0.26 | 5.58 ± 0.17 |  |  |
| GGIIAPFIPSLKYVQWSLPFIVFG [SLC22A15] | 2.75 ± 0.39 | 2.86 ± 0.32 |  |  |
| GGQDSFESIESYDSCDRLTQSWSS [ETS1] | 3.68 ± 0.67 | 3.84 ± 0.3 |  |  |
| GIREASSGGGGSSSNFHINVEESV [KRT15] | 4.92 ± 0.18 | 5.11 ± 0.28 |  |  |
| GKPLYLIFRNLCQMQEDNSSFSLL [INTS3] | 2.37 ± 0.41 | 2.28 ± 0.38 |  |  |
| GKRPSQEEDTQSIGPKVQRQSTN [CRY1] |  |  | 5.35 ± 0.28 | 5.45 ± 0.11 |
| GKSFSQNTNLHTHQRTHTGEKPFT [ZNF75A] | 4.01 ± 0.28 | 4.25 ± 0.35 |  |  |
| GKTPVCHQCHKVIRGRYLVALGHA [PDLIM7] | 2.1 ± 0.1 | 2.72 ± 0.33 |  |  |
| GLALESSSGLQDVTGPDNGVRESE [NFE2L1] | 5.57 ± 0.36 | 5.53 ± 0.28 |  |  |
| GLALGGGLELALACDIRVAASSAK [AUH] | 2.67 ± 0.4 | 2.9 ± 0.23 |  |  |
| GLKKLNLHEEEHVLLMAICIVSPD [VDR] | 3.13 ± 0.57 | 2.83 ± 0.54 |  |  |
| GLRRVLDELTLARTDLEMQIEGLN [KRT15] | 2.71 ± 0.3 | 2.66 ± 0.19 |  |  |
| GLSIPSHSSELTEQKLRACLEGSI [RPAIN] | 3.63 ± 0.39 | 3.53 ± 0.24 |  |  |

| Sequence | protein stability index [1] | protein stability index [2] | protein stability index [3] | protein stability index [4] |
| --- | --- | --- | --- | --- |
| GLSLTDESDSCVSFEAPLTPLIQQ [PSD2] | 4.29 ± 0.35 | 4.15 ± 0.29 |  |  |
| GNEEEESKIFTTLDPASLAWLTEE [DDIT3] | 5.06 ± 0.2 | 5.09 ± 0.14 |  |  |
| GNGVHVCNVKYKRWALLSCRGKKP [KLHDC10] | 2.73 ± 0.35 | 2.94 ± 0.27 |  |  |
| GNLNIHQRTHTGEKPYGCIDCGKA [ZNF649] | 3.96 ± 0.38 | 4.14 ± 0.4 |  |  |
| GNRINVPMVRKRSVSNSTQTSSSS [DLC1] | 4.44 ± 0.13 | 4.65 ± 0.2 |  |  |
| GPEPPPVYTNLSSYSPASASSGGA [JUNB] | 4.6 ± 0.5 | 4.76 ± 0.3 |  |  |
| GPSEPGGTHPEDHQGHSDQHHHHH [RHOBTB2] | 5.65 ± 0.073 | 5.32 ± 0.24 |  |  |
| GPVAGLDDSGGPTPSSYAPSHPPR [ZBTB22] | 4.92 ± 0.15 | 4.79 ± 0.13 |  |  |
| GQEYAAKIINTKKLSARDHQKLER [CAMK2D] | 3.96 ± 0.58 | 3.82 ± 0.096 |  |  |
| GQGGKLWDPSVQSCKEGLSPRGPA [ZNF263] | 3.9 ± 0.12 | 4.08 ± 0.16 |  |  |
| GQPSEPEHGPSPGQDTFCQGKADG [CHIT1] | 5.45 ± 0.32 | 5.63 ± 0.23 |  |  |
| GRCGPQAARAAGRDVAAEAVARSP [POMT2] | 4 ± 0.35 | 3.63 ± 0.15 |  |  |
| GRDALLDQIRQGIQLKSVADGQES [WASL] | 5.43 ± 0.36 | 5.22 ± 0.63 |  |  |
| GRDGYDYDGYRLRVEFPRSGRGTG [SRSF1] | 3.17 ± 0.37 | 3.26 ± 0.36 |  |  |
| GRGLKSHAYIHSVQFSHHVFLNLH [USP39] | 2.84 ± 0.45 | 2.62 ± 0.65 |  |  |
| GRYSVHNAGISFSVKKQGETVADV [MLH1] | 3.79 ± 0.25 | 3.85 ± 0.37 |  |  |
| GSGAASSSGEDKENDGFVFKMPWK [CDC25B] | 4.025 ± 0.022 | 4.37 ± 0.34 |  |  |
| GSLPWQGLKADTLKERYQKIGDTK [CSNK1G1] | 4.05 ± 0.083 | 4.19 ± 0.29 |  |  |
| GSPFGLEEPQWVPDKECRRCMQCD [ZFYVE21] | 4.1 ± 0.29 | 4.07 ± 0.28 |  |  |
| GSSIPWNHLPDPEIFRQRFRQFGY [ZNF24] | 2.49 ± 0.25 | 2.66 ± 0.14 |  |  |
| GTENGAIDAVPVDENLFTGEDLDE [ZC3H15] | 5.7 ± 0.3 | 5.52 ± 0.44 |  |  |
| GTIKKIIHQETVSKNGNGLKNTPR [PCMTD2] | 3.68 ± 0.55 | 4.03 ± 0.4 |  |  |

| Sequence | protein stability index [1] | protein stability index [2] | protein stability index [3] | protein stability index [4] |
| --- | --- | --- | --- | --- |
| GWRSLWLGWGPTALRDVPFSALYW [SLC25A39] | 2.22 ± 0.41 | 2.99 ± 0.76 |  |  |
| HADILAAVETRLSLLNMTFMKYVD [FBXO28] | 2.84 ± 0.69 | 2.75 ± 0.65 |  |  |
| HENETLASLKSEAESLKGKLEEER [GNB5] | 5.29 ± 0.33 | 5.34 ± 0.33 |  |  |
| HFFALKVMSIPDVIRLKQEQHVHN [PRKX] | 2.25 ± 0.28 | 2.17 ± 0.1 |  |  |
| HFKPHGFSSDKAKAGSSEWLAVDG [ATF4] | 3.89 ± 0.18 | 3.91 ± 0.17 |  |  |
| HGEEQRITIEPGTSYRLQGLKPNS [PTPRD] | 4.4 ± 0.18 | 4.67 ± 0.29 |  |  |
| HLALHAASSGDLTCGVCALELGST [PLAGL1] | 3.01 ± 0.48 | 2.93 ± 0.24 |  |  |
| HMEDPRRAGKMLMTLPLLRQTSTK [ESRRG] | 3.63 ± 0.16 | 3.7 ± 0.28 |  |  |
| HNDLWESWFVPDPAGIFKLNHHS [GLT8D2] |  |  | 2.87 ± 0.15 | 2.9 ± 0.41 |
| HNQVEAAWLEGRIRQEFDKLREFL [TRIM35] | 3.5 ± 0.52 | 3.75 ± 0.48 |  |  |
| HPDPAPFCADNPSELPPPMERTGG [DVL3] | 3.41 ± 0.55 | 4.17 ± 0.49 |  |  |
| HRQETVECLKKFNARRKLKGAILT [CAMK2B] | 2.79 ± 0.24 | 2.98 ± 0.29 |  |  |
| HSALGGTKKKKKTIVTDVFQGSMR [USP39] | 4.02 ± 0.4 | 4.14 ± 0.058 |  |  |
| HSLTPVSSDHLFLFGGFTTDKQPL [KLHDC2] | 2.95 ± 0.46 | 3.21 ± 0.27 |  |  |
| HSSELTEQKLRACLEGSINEHSAH [RPAIN] | 4.55 ± 0.26 | 4.44 ± 0.12 |  |  |
| HWKTWLAIKCSPSLHVDDRERMEL [RIPK4] | 2.38 ± 0.26 | 2.53 ± 0.58 |  |  |
| HWTSAPLTEASAHSHPPEIKDQGG [MAP2] | 5.14 ± 0.14 | 5.18 ± 0.18 |  |  |
| HYLIFDLVTGGELFEDIVAREYYS [CAMK2A] | 2.71 ± 0.72 | 2.54 ± 0.66 |  |  |
| ICFKEMLANSWNCLPKHLLHSVNQ [KLHDC2] | 2.73 ± 0.43 | 2.63 ± 0.65 |  |  |
| ICGIICIGPNVLMVHKRSHTGERP [IKZF1] | 2.46 ± 0.28 | 2.02 ± 0.38 |  |  |
| IDDLFAFVIKMPVMYRIGCLRDDV [CLPTM1] | 3.07 ± 0.97 | 3.2 ± 0.74 |  |  |
